Test results: patent US20150098945A1 (Daiichi Sankyo, published 2015)

T1: human ROBO2 (pCI-hROBO2-transfected HEK293 cells) (human)
T1 chain: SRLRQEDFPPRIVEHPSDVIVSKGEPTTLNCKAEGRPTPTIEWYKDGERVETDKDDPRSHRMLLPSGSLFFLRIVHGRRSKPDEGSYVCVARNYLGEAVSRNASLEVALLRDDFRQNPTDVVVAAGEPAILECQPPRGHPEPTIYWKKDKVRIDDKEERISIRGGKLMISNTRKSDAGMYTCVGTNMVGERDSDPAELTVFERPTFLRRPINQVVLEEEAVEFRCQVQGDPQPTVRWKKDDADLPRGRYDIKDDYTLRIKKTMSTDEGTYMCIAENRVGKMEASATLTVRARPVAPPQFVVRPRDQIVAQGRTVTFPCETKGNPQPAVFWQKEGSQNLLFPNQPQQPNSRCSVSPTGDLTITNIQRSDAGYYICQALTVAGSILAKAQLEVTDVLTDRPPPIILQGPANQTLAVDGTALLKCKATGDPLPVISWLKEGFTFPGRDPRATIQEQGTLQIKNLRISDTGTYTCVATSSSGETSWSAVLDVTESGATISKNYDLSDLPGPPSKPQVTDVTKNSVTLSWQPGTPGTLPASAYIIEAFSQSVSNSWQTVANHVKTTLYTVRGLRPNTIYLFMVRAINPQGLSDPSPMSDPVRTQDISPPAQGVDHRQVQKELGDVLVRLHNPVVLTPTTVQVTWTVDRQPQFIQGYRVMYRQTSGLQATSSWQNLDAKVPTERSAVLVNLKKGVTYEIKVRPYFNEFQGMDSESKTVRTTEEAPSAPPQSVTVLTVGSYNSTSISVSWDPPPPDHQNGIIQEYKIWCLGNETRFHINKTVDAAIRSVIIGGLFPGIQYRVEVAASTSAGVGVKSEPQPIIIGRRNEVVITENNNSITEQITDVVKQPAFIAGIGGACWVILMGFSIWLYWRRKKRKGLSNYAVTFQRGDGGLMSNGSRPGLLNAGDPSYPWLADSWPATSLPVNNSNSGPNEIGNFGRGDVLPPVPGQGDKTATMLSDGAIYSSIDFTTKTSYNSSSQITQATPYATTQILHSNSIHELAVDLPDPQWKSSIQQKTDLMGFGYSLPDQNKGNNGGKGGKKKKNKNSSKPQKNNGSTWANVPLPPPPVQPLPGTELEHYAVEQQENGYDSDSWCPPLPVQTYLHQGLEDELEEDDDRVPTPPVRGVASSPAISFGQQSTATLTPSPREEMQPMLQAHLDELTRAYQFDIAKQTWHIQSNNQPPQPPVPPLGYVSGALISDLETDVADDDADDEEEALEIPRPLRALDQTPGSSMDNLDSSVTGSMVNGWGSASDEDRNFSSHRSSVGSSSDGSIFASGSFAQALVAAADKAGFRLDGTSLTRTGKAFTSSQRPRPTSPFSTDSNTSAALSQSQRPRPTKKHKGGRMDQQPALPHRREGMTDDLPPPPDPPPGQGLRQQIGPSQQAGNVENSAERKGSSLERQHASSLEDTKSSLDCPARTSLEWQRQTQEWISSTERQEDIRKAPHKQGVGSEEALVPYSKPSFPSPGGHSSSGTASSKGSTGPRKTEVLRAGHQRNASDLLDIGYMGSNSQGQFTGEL

B1: humanized MAb1 antibody H-1143 (antibody, human IgG2, kappa, V domains shown)
VH: EVQLVESGGGLVQPGGSLRLSCAASGFTFSTYAMSWVRQAPGKGLEWVATISQGGTYTYYPDSVKGRFTISRDNAKNTLYLQMNSLRAEDTAVYYCARLIYYDYLDYWGQGTLVTVSS
VL: DIVMTQSPLSLPVTLGEPASISCRSSQSLENENKNLYLNWYLQKPGQSPQLLIYRVSNRFSGVPDRFSGSGSGTDFTLKISRVEAEDVGVYYCLQVTHVPWTFGPGTKVDIKR
notes: Human IgG2 / kappa constant regions; also called hMAb1-H2-type heavy chain + hMAb1-L2-type light chain
B2: humanized MAb1 antibody H-2140 (antibody, human IgG2, kappa, V domains shown)
VH: EVQLVESGGGLVQPGGSLRLSCAASGFTFSTYAMSWVRQAPGKRLEWVATISQGGTYTYYPDSVKGRFTISRDNAKNTLYLQMNSLRAEDTAVYYCARLIYYDYLDYWGQGTLVTVSS
VL: DIVMTQSPLSLPVTLGEPASISCRSSQSLENSNGNTYLNWYLQKPGQSPQLLIYRVSNRFSGVPDRFSGSGSGTDFTLKISRVEAEDVGVYYCLQVTHVPWTFGPGTKVDIKR
notes: Human IgG2 / kappa constant regions; also called hMAb1-H4-type heavy chain + hMAb1-L1-type light chain
B3: humanized MAb1 antibody H-2143 (antibody, human IgG2, kappa, V domains shown)
VH: EVQLVESGGGLVQPGGSLRLSCAASGFTFSTYAMSWVRQAPGKRLEWVATISQGGTYTYYPDSVKGRFTISRDNAKNTLYLQMNSLRAEDTAVYYCARLIYYDYLDYWGQGTLVTVSS
VL: DIVMTQSPLSLPVTLGEPASISCRSSQSLENENKNLYLNWYLQKPGQSPQLLIYRVSNRFSGVPDRFSGSGSGTDFTLKISRVEAEDVGVYYCLQVTHVPWTFGPGTKVDIKR
notes: Human IgG2 / kappa constant regions; also called hMAb1-H4-type heavy chain + hMAb1-L2-type light chain

Target: T1, human ROBO2 (pCI-hROBO2-transfected …)
Test: flow cytometry (FC500), HEK293 cells transfected with pCI-hROBO2, FITC goat anti-human IgG Fc; control histogram IgG (human IgG)

Binding result, no binding (tested: 10 µg/mL):
B1, B2, B3
